Key:
[1] = molecular target: GST-Shroom3 SD2 R1838A (mouse) (UniProt Q9QXN0); experiment: pull-down; GST-Shroom3 SD2 variants bound to glutathione beads, His-tagged hRock1 SBD soluble; 2 hours at room temperature; washed with NETN; SDS-PAGE, Coomassie Blue
[2] = molecular target: GST-Shroom3 SD2 R1838C (mouse) (UniProt Q9QXN0); experiment: as above

Chain of UniProt Q9QXN0 (Q9QXN0 1562-1986, stated change not applied): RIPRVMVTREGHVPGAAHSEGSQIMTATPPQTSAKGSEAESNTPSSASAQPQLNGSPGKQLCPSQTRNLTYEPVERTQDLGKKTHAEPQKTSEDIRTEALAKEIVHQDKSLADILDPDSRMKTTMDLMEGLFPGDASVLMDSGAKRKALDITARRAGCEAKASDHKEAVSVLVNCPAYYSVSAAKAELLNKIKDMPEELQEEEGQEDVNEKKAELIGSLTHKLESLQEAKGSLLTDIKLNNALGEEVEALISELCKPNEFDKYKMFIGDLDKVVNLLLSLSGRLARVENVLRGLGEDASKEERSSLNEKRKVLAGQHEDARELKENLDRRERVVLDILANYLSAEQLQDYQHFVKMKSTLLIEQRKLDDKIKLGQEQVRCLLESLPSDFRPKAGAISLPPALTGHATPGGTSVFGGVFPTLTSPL

- percent reduction in binding relative to wild type [1]: 45%
- percent reduction in binding relative to wild type [2]: 95%
Substance: His-tagged human Rock1 Shroom-Binding domain (SBD), amino acids 707-946 (from UniProt Q13464 707-946) (domain or fragment)

Reference: article PMC4163662
